Numbering of substitutions follows the chain as printed. “And” between values parts separate entries of the source, which are not always exact repeats. Identical values can stand only once.

The chains are these.
B1: vhh_tstrep_sars2_pjl1_L_32 (VHH)
VHH: QVQLQESGGGLVQAGGSLRLSCAASGRTFSEYAMGWFRQAPGKEREFVATISWSGGSTYYTDSVKGRFTISRDNAKNTVYLQMNSLKPDDTAVYYCAAAGLGTVVSAWDYDYDYWGQGTQVTVSS
B2: vhh_tstrep_sars2_pjl1_L_22 (VHH)
VHH: B1 VHH with W53A, A107E
B3: vhh_tstrep_sars2_pjl1_L_24 (VHH)
VHH: B1 VHH with Y59A, A107E
B4: vhh_tstrep_sars2_pjl1_L_75 (VHH)
VHH: B1 VHH with S57A, Y60S, A107E
B5: vhh_tstrep_sars2_pjl1_L_80 (VHH)
VHH: B1 VHH with S57A, D62R, A107E
B6: vhh_tstrep_sars2_pjl1_L_77 (VHH)
VHH: B1 VHH with S57A, Y60H, A107E
B7: vhh_tstrep_sars2_pjl1_L_133 (VHH)
VHH: B1 VHH with S57A, Y60H, A107E, Y114S
B8: vhh_tstrep_sars2_pjl1_L_125 (VHH)
VHH: B1 VHH with S57A, Y60H, G102R, A107E
B9: vhh_tstrep_sars2_pjl1_L_124 (VHH)
VHH: B1 VHH with S57G, Y60H, A107E
B10: vhh_tstrep_sars2_pjl1_L_132 (VHH)
VHH: B1 VHH with S54G, S57A, Y60H, A107E
B11: vhh_tstrep_sars2_pjl1_L_137 (VHH)
VHH: B1 VHH with S57A, Y60H
B12: vhh_tstrep_sars2_pjl1_L_114 (VHH)
VHH: B1 VHH with S57A, Y60H, A98P, A107E
B13: vhh_tstrep_sars2_pjl1_L_112 (VHH)
VHH: B1 VHH with S57A, Y60H, S63T, A107E
B14: vhh_tstrep_sars2_pjl1_L_113 (VHH)
VHH: B1 VHH with S57A, Y60H, A107E, Y110F
B15: vhh_tstrep_sars2_pjl1_L_1 (VHH)
VHH: B1 VHH with A97G, A107E
B16: vhh_tstrep_sars2_pjl1_L_38 (VHH)
VHH: B1 VHH with A107E, D109A
B17: vhh_tstrep_sars2_pjl1_L_76 (VHH)
VHH: B1 VHH with S57A, Y60E, A107E
B18: vhh_tstrep_sars2_pjl1_L_40 (VHH)
VHH: B1 VHH with D62A, A107E
B19: vhh_tstrep_sars2_pjl1_L_126 (VHH)
VHH: B1 VHH with S57A, T58S, Y60H, A107E
B20: vhh_tstrep_sars2_pjl1_L_128 (VHH)
VHH: B1 VHH with W53P, S57A, Y60H, A107E
B21: vhh_tstrep_sars2_pjl1_L_130 (VHH)
VHH: B1 VHH with S57A, Y60H, G66A, A107E
B22: vhh_tstrep_sars2_pjl1_L_123 (VHH)
VHH: B1 VHH with S54I, S57A, Y60H, A107E
B23: vhh_tstrep_sars2_pjl1_L_135 (VHH)
VHH: B1 VHH with S57A, Y60H, G102W, A107E
B24: vhh_tstrep_sars2_pjl1_L_129 (VHH)
VHH: B1 VHH with S57A, Y60H, D62T, A107E
B25: vhh_tstrep_sars2_pjl1_L_139 (VHH)
VHH: B1 VHH with S57A, Y60H, A107E, Y112F
B26: vhh_tstrep_sars2_pjl1_L_119 (VHH)
VHH: B1 VHH with I51E, S57A, Y60H, A107E
B27: vhh_tstrep_sars2_pjl1_L_120 (VHH)
VHH: B1 VHH with S57A, Y60H, K65D, A107E
B28: vhh_tstrep_sars2_pjl1_L_116 (VHH)
VHH: B1 VHH with T50S, S57A, Y60H, A107E
B29: vhh_tstrep_sars2_pjl1_L_115 (VHH)
VHH: B1 VHH with S57A, Y60H, G100D, A107E
B30: vhh_tstrep_sars2_pjl1_L_46 (VHH)
VHH: B1 VHH with A107E, W108A
B31: vhh_tstrep_sars2_pjl1_L_117 (VHH)
VHH: B1 VHH with S57A, Y60H, D62W, A107E
B32: vhh_tstrep_sars2_pjl1_L_85 (VHH)
VHH: B1 VHH with S57A, G102E, A107E
B33: vhh_tstrep_sars2_pjl1_L_81 (VHH)
VHH: B1 VHH with S57A, G100R, A107E
B34: vhh_tstrep_sars2_pjl1_L_82 (VHH)
VHH: B1 VHH with S57A, G100E, A107E
B35: vhh_tstrep_sars2_pjl1_L_127 (VHH)
VHH: B1 VHH with S57A, T58A, Y60H, A107E
B36: vhh_tstrep_sars2_pjl1_L_121 (VHH)
VHH: B1 VHH with G56W, S57A, Y60H, A107E
B37: vhh_tstrep_sars2_pjl1_L_118 (VHH)
VHH: B1 VHH with S57A, Y59G, Y60H, A107E

The first test deals with CoV-2 (SARS-CoV-2).
B1 registered a xmid (log10) of -0.271.

B2 returned a xmid (log10) of 0.688.

With B3, the xmid (log10) is 0.582.

For a further test, the target named is SARS-CoV-2 Spike RBD-His Tag, Sino Biological (SARS-CoV-2).
B4: the xmid (log10) was determined as 0.0467.

Molecule B5 showed a xmid (log10) of -0.61.

The molecule B6 showed a xmid (log10) of -1.42.

For the next test the target is unchanged. This is another data set of the same source.
As for B7, the xmid (log10) was -1.46.

As for B8, the xmid (log10) was 0.297.

Molecule B9 came in with a xmid (log10) of -1.84.

B6 returned a xmid (log10) of -1.54.

The next test shares this target. This is another data set of the same source.
Molecule B10 had a xmid (log10) of 0.0703.

B11 registered a xmid (log10) of -0.676.

In the case of B6, the xmid (log10) was -1.6.

For the next test the target is unchanged. The source holds these as a separate data set.
B12 had a xmid (log10) of 0.263.

For B13, the xmid (log10) is -1.14.

With B14, the xmid (log10) was -0.0032.

A further test addresses CoV-2 (SARS-CoV-2). The source holds these as a separate data set.
In turn, B15 gave a xmid (log10) of 0.903.

In the case of B1, the xmid (log10) amounted to 0.239.

Molecule B2 yielded a xmid (log10) of 1.08.

Turning to B16, the xmid (log10) came to 0.0417.

The next test has as its target SARS-CoV-2 Spike RBD-His Tag, Sino Biological (SARS-CoV-2). The source holds these as a separate data set.
On to B4, for which the xmid (log10) is -0.0338.

With B17, the xmid (log10) is -0.184.

The molecule B6 came in with a xmid (log10) of -1.22.

The next test concerns the target CoV-2 (SARS-CoV-2). This is another data set of the same source.
The molecule B15 registered a xmid (log10) of 0.839.

Regarding B18, the xmid (log10) was 0.226.

B3: the xmid (log10) is 0.515.

The next test addresses CoV-2 (SARS-CoV-2). This is another data set of the same source.
In turn, B15 came in with a xmid (log10) of 0.321.

The target in another test is CoV-2 (SARS-CoV-2). The source holds these as a separate data set.
B1: the xmid (log10) was 0.532.

As to B2, the xmid (log10) is 0.892.

As for B3, the xmid (log10) came to 0.908.

The molecule B16 displayed a xmid (log10) of 0.854.

A further test has as its target SARS-CoV-2 Spike RBD-His Tag, Sino Biological (SARS-CoV-2). This is another data set of the same source.
B19 gave a xmid (log10) of 0.489.

B20 displayed a xmid (log10) of 0.384.

Molecule B21 returned a xmid (log10) of 0.204.

B22: the xmid (log10) is 0.9.

As for B23, the xmid (log10) was -1.5.

The target is the same in another test. The source holds these as a separate data set.
The molecule B20 had a xmid (log10) of -0.2.

In turn, B21 yielded a xmid (log10) of -0.532.

As for B24, the xmid (log10) was -1.34.

In turn, B6 gave a xmid (log10) of -1.54.

The target is the same in a further test. This is another data set of the same source.
The molecule B25 showed a xmid (log10) of 0.366.

Turning to B6, the xmid (log10) is -1.66 and -1.72.

The target is the same in a further test. This is another data set of the same source.
Regarding B26, the xmid (log10) worked out at 0.39.

B27: the xmid (log10) is -0.0348.

In turn, B8 came in with a xmid (log10) of 0.108.

For the molecule B28, the xmid (log10) stood at 0.288.

B6: the xmid (log10) was -1.49.

Another test has the same target. This is another data set of the same source.
The molecule B10 showed a xmid (log10) of -0.157.

Take B7: the xmid (log10) was -1.7.

As for B11, the xmid (log10) was -1.3.

B22 showed a xmid (log10) of 0.157.

With B23, the xmid (log10) is -1.65.

The target is the same in a further test. This is another data set of the same source.
Molecule B27 yielded a xmid (log10) of -0.493.

Regarding B28, the xmid (log10) is -0.0157.

Consider B29, for which the xmid (log10) is -0.277.

On to B6, for which the xmid (log10) was -1.54.

A further test deals with CoV-2 (SARS-CoV-2). This is another data set of the same source.
Regarding B18, the xmid (log10) is -0.664.

B30 returned a xmid (log10) of 1.65.

B16: the xmid (log10) was -0.286.

Another test deals with SARS-CoV-2 Spike RBD-His Tag, Sino Biological (SARS-CoV-2). This is another data set of the same source.
B12 had a xmid (log10) of 0.526.

As to B13, the xmid (log10) is -1.27.

Consider B31, for which the xmid (log10) was -1.5.

The target is the same in another test. This is another data set of the same source.
Turning to B29, the xmid (log10) came to 0.0337.

B6: the xmid (log10) was -1.92.

The next test has the same target. The source holds these as a separate data set.
Turning to B32, the xmid (log10) was -0.815.

For B33, the xmid (log10) came to 1.06.

B34 gave a xmid (log10) of 0.109.

For B17, the xmid (log10) was -0.368.

A further test has the same target. The source holds these as a separate data set.
Turning to B26, the xmid (log10) turned out to be 0.385.

B35 gave a xmid (log10) of 0.479.

With B36, the xmid (log10) was -0.224.

B37 gave a xmid (log10) of 0.784.

Molecule B31 returned a xmid (log10) of -1.7.

B24 displayed a xmid (log10) of -1.34.

The next test shares this target. The source holds these as a separate data set.
On to B32, for which the xmid (log10) is -1.05.

With B5, the xmid (log10) was -0.743.

For B33, the xmid (log10) worked out at 0.479.

Take B34: the xmid (log10) worked out at 0.155.

The next test shares this target. This is another data set of the same source.
Regarding B35, the xmid (log10) was -0.006.

In turn, B36 returned a xmid (log10) of -0.645.

B37 showed a xmid (log10) of 0.412.

On to B19, for which the xmid (log10) was -0.398.

B14 came in with a xmid (log10) of 0.334.

With B9, the xmid (log10) is -1.89.

(Values after US20240059759A1.)
